Data taken from US20260256915A1 (published 2026).

T1: PRAME peptide on HLA-A*02:01 (human)
T1 peptide: SLLQHLIGL

B1: nwTCR-1906 (TCR, V domains shown)
Valpha: RKEVEQDPGPFNVPEGATVAFNCTYSNSASQSFFWYRQDCRKEPKLLMSVYSSGNEDGRFTAQLNRASQYISLLIRDSKLSDSATYLCVVTQAGTALIFGKGTTLSVSS
Vbeta: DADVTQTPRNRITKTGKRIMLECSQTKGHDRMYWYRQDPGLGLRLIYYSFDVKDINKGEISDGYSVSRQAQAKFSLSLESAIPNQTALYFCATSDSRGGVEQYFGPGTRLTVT
B2: nwTCR-1953 (TCR, V domains shown)
Valpha: DAKTTQPNSMESNEEEPVHLPCNHSTISGTDYIHWYRQLPSQGPEYVIHGLTSNVNNRMASLAIAEDRKSSTLILHRATLRDAAVYYCILRAGGSGDKLTFGTGTRLAVRP
Vbeta: DTEVTQTPKHLVMGMTNKKSLKCEQHMGHRAMYWYKQKAKKPPELMFVYSYEKLSINESVPSRFSPECPNSSLLNLHLHALQPEDSALYLCASSQDPFWGAGELFFGEGSRLTVL
B3: nwTCR-1954 (TCR, V domains shown)
Valpha: QKEVEQNSGPLSVPEGAIASLNCTYSDRGSQSFFWYRQYSGKSPELIMSIYSNGDKEDGRFTAQLNKASQYVSLLIRDSQPSDSATYLCAVLRSNDYKLSFGAGTTVTVRA
Vbeta: EAQVTQNPRYLITVTGKKLTVTCSQNMNHEYMSWYRQDPGLGLRQIYYSMNVEVTDKGDVPEGYKVSRKEKRNFPLILESPSPNQTSLYFCASSPGTSGNEQFFGPGTRLTVL
B4: nwTCR-2006 (TCR, V domains shown)
Valpha: AQSVTQLDSHVSVSEGTPVLLRCNYSSSYSPSLFWYVQHPNKGLQLLLKYTSAATLVKGINGFEAEFKKSETSFHLTKPSAHMSDAAEYFCVVSITGFQKLVFGTGTRLLVSP
Vbeta: GAVVSQHPSRVICKSGTSVKIECRSLDFQATTMFWYRQFPKQSLMLMATSNEGSKATYEQGVEKDKFLINHASLTLSTLTVTSAHPEDSSFYICSATEDNEKLFFGSGTQLSVL
B5: nwTCR-2081 (TCR, V domains shown)
Valpha: GEDVEQSLFLSVREGDSSVINCTYTDSSSTYLYWYKQEPGAGLQLLTYIFSNMDMKQDQRLTVLLNKKDKHLSLRIADTQTGDSAIYFCAESVGYGGSQGNLIFGKGTKLSVKP
Vbeta: KAGVTQTPRYLIKTRGQQVTLSCSPISGHRSVSWYQQTPGQGLQFLFEYFSETQRNKGNFPGRFSGRQFSNSRSEMNVSTLELGDSALYLCASSLEAGSFYEQYFGPGTRLTVT
B6: nwTCR-2157 (TCR, V domains shown)
Valpha: QKEVEQNSGPLSVPEGAIASLNCTYSDRGSQSFFWYRQYSGKSPELIMFIYSNGDKEDGRFTAQLNKASQYVSLLIRDSQPSDSATYLCAVPGGTSYGKLTFGQGTILTVHP
Vbeta: DTAVSQTPKYLVTQMGNDKSIKCEQNLGHDTMYWYKQDSKKFLKIMFSYNNKELIINETVPNRFSPKSPDKAHLNLHINSLELGDSAVYFCASSQGISGNTIYFGEGSWLTVV
B7: nwTCR-2159 (TCR, V domains shown)
Valpha: QQPVQSPQAVILREGEDAVINCSSSKALYSVHWYRQKHGEAPVFLMILLKGGEQKGHDKISASFNEKKQQSSLYLTASQLSYSGTYFCGTESGRGSTLGRLYFGRGTQLTVWP
Vbeta: DSGVTQTPKHLITATGQRVTLRCSPRSGDLSVYWYQQSLDQGLQFLIQYYNGEERAKGNILERFSAQQFPDLHSELNLSSLELGDSALYFCASSPWTSGSYEQYFGPGTRLTVT
B8: nwTCR-2169 (TCR, V domains shown)
Valpha: SQQGEEDPQALSIQEGENATMNCSYKTSINNLQWYRQNSGRGLVHLILIRSNEREKHSGRLRVTLDTSKKSSSLLITASRAADTASYFCATLTLNDYKLSFGAGTTVTVRA
Vbeta: EAQVTQNPRYLITVTGKKLTVTCSQNMNHEYMSWYRQDPGLGLRQIYYSMNVEVTDKGDVPEGYKVSRKEKRNFPLILESPSPNQTSLYFCATQWASGSTDTQYFGPGTRLTVL
B9: nwTCR-2170 (TCR, V domains shown)
Valpha: GQQLNQSPQSMFIQEGEDVSMNCTSSSIFNTWLWYKQDPGEGPVLLIALYKAGELTSNGRLTAQFGITRKDSFLNISASIPSDVGIYFCAGQASGTYKYIFGTGTRLKVLA
Vbeta: EAQVTQNPRYLITVTGKKLTVTCSQNMNHEYMSWYRQDPGLGLRQIYYSMNVEVTDKGDVPEGYKVSRKEKRNFPLILESPSPNQTSLYFCASSSGTSDEQYFGPGTRLTVT
B10: nwTCR-2228 (TCR, V domains shown)
Valpha: QKEVEQNSGPLSVPEGAIASLNCTYSDRGSQSFFWYRQYSGKSPELIMFIYSNGDKEDGRFTAQLNKASQYVSLLIRDSQPSDSATYLCAGHTGNQFYFGTGTSLTVIP
Vbeta: EPEVTQTPSHQVTQMGQEVILRCVPISNHLYFYWYRQILGQKVEFLVSFYNNEISEKSEIFDDQFSVERPDGSNFTLKIRSTKLEDSAMYFCASREDGYEQYFGPGTRLTVT
B11: nwTCR-2285 (TCR, V domains shown)
Valpha: KNEVEQSPQNLTAQEGEFITINCSYSVGISALHWLQQHPGGGIVSLFMLSSGKKKHGRLIATINIQEKHSSLHITASHPRDSAVYICALNSDSNYQLIWGAGTKLIIKP
Vbeta: EAQVTQNPRYLITVTGKKLTVTCSQNMNHEYMSWYRQDPGLGLRQIYYSMNVEVTDKGDVPEGYKVSRKEKRNFPLILESPSPNQTSLYFCATSPGTLYEQYFGPGTRLTVT
B12: nwTCR-2286 (TCR, V domains shown)
Valpha: GQQLNQSPQSMFIQEGEDVSMNCTSSSIFNTWLWYKQDPGEGPVLLIALYKAGELTSNGRLTAQFGITRKDSFLNISASIPSDVGIYFCAGPEDDKIIFGKGTRLHILP
Vbeta: DSGVTQTPKHLITATGQRVTLRCSPRSGDLSVYWYQQSLDQGLQFLIQYYNGEERAKGNILERFSAQQFPDLHSELNLSSLELGDSALYFCASSPWLQGGNEQFFGPGTRLTVL
B13: nwTCR-2316 (TCR, V domains shown)
Valpha: TQLLEQSPQFLSIQEGENLTVYCNSSSVFSSLQWYRQEPGEGPVLLVTVVTGGEVKKLKRLTFQFGDARKDSSLHITAAQPGDTGLYLCAGVDNYGQNFVFGPGTRLSVLP
Vbeta: DAGVIQSPRHEVTEMGQEVTLRCKPISGHNSLFWYRQTMMRGLELLIYFNNNVPIDDSGMPEDRFSAKMPNASFSTLKIQPSEPRDSAVYFCASSIAALGFGELFFGEGSRLTVL
B14: nwTCR-2383 (TCR, V domains shown)
Valpha: GIQVEQSPPDLILQEGANSTLRCNFSDSVNNLQWFHQNPWGQLINLFYIPSGTKQNGRLSATTVATERYSLLYISSSQTTDSGVYFCAVMPSGTYKYIFGTGTRLKVLA
Vbeta: EAQVTQNPRYLITVTGKKLTVTCSQNMNHEYMSWYRQDPGLGLRQIYYSMNVEVTDKGDVPEGYKVSRKEKRNFPLILESPSPNQTSLYFCASSPSSGYNEQFFGPGTRLTVL
B15: nwTCR-2418 (TCR, V domains shown)
Valpha: DQQVKQNSPSLSVQEGRISILNCDYTNSMFDYFLWYKKYPAEGPTFLISISSIKDKNEDGRFTVFLNKSAKHLSLHIVPSQPGDSAVYFCAASGVRGQNFVFGPGTRLSVLP
Vbeta: DSGVTQTPKHLITATGQRVTLRCSPRSGDLSVYWYQQSLDQGLQFLIQYYNGEERAKGNILERFSAQQFPDLHSELNLSSLELGDSALYFCASSPWLAGGREQYFGPGTRLTVT
B16: nwTCR-2523 (TCR, V domains shown)
Valpha: RKEVEQDPGPFNVPEGATVAFNCTYSNSASQSFFWYRQDCRKEPKLLMSVYSSGNEDGRFTAQLNRASQYISLLIRDSKLSDSATYLCVVNRGSQGNLIFGKGTKLSVKP
Vbeta: DAGVTQSPTHLIKTRGQQVTLRCSPKSGHDTVSWYQQALGQGPQFIFQYYEEEERQRGNFPDRFSGHQFPNYSSELNVNALLLGDSALYLCASSLVDYEQYFGPGTRLTVT

Target: T1, PRAME peptide on HLA-A*02:01
Experiment: multimer staining

Binding result, recognises:
B1, B2, B3, B4, B5, B6, B7, B8, B9, B10, B11, B12, B13, B14, B15, B16
